The source of these data is patent US7070776.

The target of assay [1] is CD28 receptor (human) (UniProt P10747). Briefly: cell-based or functional assay.
The target of assay [2] is B7 antigen (human) (UniProt P33681). Put plainly: direct immunofluorescence flow cytometry, T51 cells, after preincubation with unlabeled (cold) BB-1. (Flow cytometry measures light scatter and fluorescence of single cells or particles in a stream.)
Assay [3] shares this target. Put plainly: direct immunofluorescence flow cytometry, Daudi cells, after preincubation with unlabeled (cold) BB-1.
Assay [4] shares this target. Put plainly: direct immunofluorescence flow cytometry, 5E1 B-lymphoblastoid cells, no unlabeled BB-1.
Assay [5] has the same target. Put plainly: direct immunofluorescence flow cytometry, Raji cells.
For assay [6] the target is unchanged. Briefly: direct immunofluorescence flow cytometry, Raji cells, after preincubation with unlabeled (cold) BB-1.
Assay [7] has the same target. Briefly: direct immunofluorescence flow cytometry, Daudi cells.
For assay [8] the target is unchanged. Briefly: direct immunofluorescence flow cytometry, 5E1 cells.
The target is the same in assay [9]. Put plainly: cell-based or functional assay.
For assay [10] the target is unchanged. Briefly: direct immunofluorescence flow cytometry, Jijoye cells.
Assay [11] has the same target. Put plainly: direct immunofluorescence flow cytometry, Raji Burkitt's lymphoma cells, no unlabeled BB-1.
The target is the same in assay [12]. Put plainly: direct immunofluorescence flow cytometry, Jijoye cells, after preincubation with unlabeled (cold) BB-1.
For assay [13] the target is unchanged. Briefly: direct immunofluorescence flow cytometry, T51 cells.
For assay [14] the target is unchanged. Briefly: direct immunofluorescence flow cytometry, T51 B-lymphoblastoid cells, no unlabeled BB-1.
For assay [15] the target is unchanged. Put plainly: direct immunofluorescence flow cytometry, Jijoye Burkitt's lymphoma cells, no unlabeled BB-1.
For assay [16] the target is unchanged. Briefly: direct immunofluorescence flow cytometry, Daudi Burkitt's lymphoma cells, no unlabeled BB-1.
For assay [17] the target is unchanged. Put plainly: direct immunofluorescence flow cytometry, 5E1 cells, after preincubation with unlabeled (cold) BB-1.

B7 antigen (human), sequence (P33681 35-288): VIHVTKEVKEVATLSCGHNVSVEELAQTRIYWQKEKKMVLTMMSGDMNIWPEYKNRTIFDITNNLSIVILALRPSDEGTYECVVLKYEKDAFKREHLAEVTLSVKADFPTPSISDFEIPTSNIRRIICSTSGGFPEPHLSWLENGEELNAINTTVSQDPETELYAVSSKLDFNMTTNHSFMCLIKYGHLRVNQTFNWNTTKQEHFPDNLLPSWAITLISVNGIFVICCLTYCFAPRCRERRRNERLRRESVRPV

For mAb 9.3 (Fab fragments), in assay [1], the [^3H]-T incorporation of PHA blasts stimulated with B7+ CHO (40:1), 9.3 Fab at 10 µg/ml was determined as 132000 cpm.

For mAb BB-1 (anti-B7) (antibody), the mean fluorescence (linear units), FITC-BB-1 +COLD in [2] was found to be 3 linear units; in assay [3] it was 2.8 linear units; in [6], 2.8 linear units; in assay [12], 2.8 linear units; in [17], 2.4 linear units. For the same substance, the mean fluorescence (linear units), FITC-BB-1 -COLD in assay [4] came out at 13 linear units; in [11], 7.1 linear units; in [14], 16.4 linear units; in assay [15], 17.8 linear units; in [16] it was 6.4 linear units. Besides, the SPECIFIC BINDING (mean fluorescence, -cold minus +cold) is 4.3 linear units in [5]; 3.6 linear units in assay [7]; 10.6 linear units in assay [8]; 15 linear units in [10]; 13.4 linear units in assay [13]. In assay [9], this substance had a [^3H]-T incorporation of PHA blasts stimulated with B7+ CHO (40:1), BB-1 at 10 µg/ml of 98300 cpm. In assay [9], this substance registered a blocking of adhesion of Jijoye cells to CD28+ CHO cells, 10 mM EDTA of 60%.

In [1], “monoclonal antibody (mAb) 9.3 (anti-CD28)” came in with a [^3H]-T incorporation of PBL, +Anti-CD3, mAb 9.3 (immob.), Exp. 1 of 137000 cpm; a [^3H]-T incorporation of PBL, +Anti-CD3, mAb 9.3 (soln.), Exp. 1 of 156000 cpm; a [^3H]-T incorporation of PBL, +Anti-CD3, mAb 9.3 (soln.), Exp. 2 of 75800 cpm; a [^3H]-T incorporation of PBL, -Anti-CD3, mAb 9.3 (immob.), Exp. 1 of 100 cpm. In [1], this substance had a [^3H]-T incorporation of PBL, -Anti-CD3, mAb 9.3 (soln.), Exp. 1 of 300 cpm; a [^3H]-T incorporation of PBL, -Anti-CD3, mAb 9.3 (soln.), Exp. 2 of 400 cpm; a blocking of adhesion of B7 transfected COS cells to CD28+ CHO cells, EDTA omitted of 40%; a half-maximal inhibition of CD28-mediated adhesion (PM cells to CD28+ CHO) of 10 nM. For the same substance, in assay [1], the reduction of T51 cell adhesion to CD28+ CHO cells by mAb 9.3 alone (no EDTA) is 62% and the reduction of T51 cell adhesion to CD28+ CHO cells by mAb 9.3 plus EDTA was 93%.
